Here are results for 41 sequences from the nanobody polyreactivity screen of Harvey et al. (2022).

A short description of this data set: yeast display, Sf9 membrane polyspecificity reagent, FACS + sequencing; frameworks hold sequencing errors. In short, it runs like this: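 Polyreactivity labels are assigned by the sorting gate from which each nanobody was recovered. The gates were low and high (top ~1%), set on anti-HA fluorescence for expression and streptavidin fluorescence for reagent binding. Before sorting, galactose-induced (36–48 hours) yeast display cells were stained for 1 hour at 4 °C with 10% biotinylated, detergent-solubilized Sf9 membrane reagent.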
With “QVQLVESGGGLVQAGGSLRLSCAASGSTFSQYAMGWYRPAPGKERELVAAINYIGGSTYYADSVKGRFTISRDNAKNTVYLQMNSLKPEDTAVYYCAVQRWKSSVSFGYWGQGTQVTVSS”, the “polyreactivity (PSR sort gate)” value is “low polyreactivity”.
To “QVQLVESGGGLVQAGGSLRLSCAASGSTFSQYAMGWYRQAPGKERELVAAITTSDGSTNYADSVKGRFTISRDNAKNTVYLQMNSLKPEDTAVYYCNTEYFYYSFGYWGQGTQVTVSS” belongs “low polyreactivity”; to “QVQLVESGGGLVQAGGSLRLSCAASGSTFSRNAMGWSRQAPGKERELVAAISYRGGSTYYADSVKGRFTISRDNAKNTVYLQMNSLKPEDTAVYYCNADVGWRAPDYGGYDYWGQGTQVTVSS”, “high polyreactivity”.
Turning to “QVQLVESGGGLVQAGGSLRLSCAASGSTFSRNAMGWYRQAPGKERELVAAISWRGGRTYYADSVKGRFTISRDNAKNTVYLQMNRLKPEDTAVYYCAAEHKYRYDYWGQGTQVTVSS”, the “polyreactivity (PSR sort gate)” value is on record as “low polyreactivity”.
The result for “QVQLVESGGGLVQAGGSLRLSCAASGSTFSRNTMGWYRQAPGKERELVAAITRSGDSTYYADSVKGRFTISRDNAKKTVYLQMNSLKPEDTAVYYCAARRAYLNYYYWGQGTQVTVSS” reads “high polyreactivity”; that for “QVQLVESGGGLVQAGGSLRLSCAASGSTFSRYAMGWYRPAPGKERELVAAITRSGGGTHYADSVKGRFTISRDNAKNTVYLQMNSLKPEETAVYYCAKRQSGYRYDYWGQGTEVTVSS”, “low polyreactivity”.
Regarding “QVQLVESGGGLVQAGGSLRLSCAASGSTFSRYAMGWYRQAPGKERELVAAISRRAGSTYYADSVKGRFTISRDNAKNTVYLQMNSLKPEDTAVYYCAARTWTENRDGDYWGQGTQVTVSS”, the “polyreactivity (PSR sort gate)” value is given as “high polyreactivity”.
For “QVQLVESGGGLVQAGGSLRLSCAASGSTFSRYAMGWYRQAPGKERELVAAISSRGGSTYYADSVKGRFTISRDNAKNTVYLQMNSLKPEDTAVYYCAARPYYYIVRGTEYDYWGQGTQVTVSS”, the “polyreactivity (PSR sort gate)” value is “high polyreactivity”.
Take “QVQLVESGGGLVQAGGSLRLSCAASGSTFSRYAMGWYRQAPGKERELVAAISWSGGRTNYADSVKGRFTISRDNAKNTVYLQMNSLKPEDTAVYYCNAPFRHRYRVDYWGQGTQVTVSS”: the “polyreactivity (PSR sort gate)” value is “high polyreactivity”.
Take “QVQLVESGGGLVQAGGSLRLSCAASGSTFSRYAMGWYRQAPGKERELVAAISYSGDSTYYADSVKGRFTISRDNAKNTVYLQMNSLKPEDTAVYYCNVYSHYRGYYWGQGTQVTVSS”: the “polyreactivity (PSR sort gate)” value is listed as “high polyreactivity”.
Turning to “QVQLVESGGGLVQAGGSLRLSCAASGSTFSRYTMGRYRQAPGKERELVAAIRRSGASTYYADSVKGRFTISRDNAKNTVYLQMNSLKPEDTAVYYFAVGRYRYGYWGQGTQVTVSS”, the “polyreactivity (PSR sort gate)” value is reported as “high polyreactivity”.
In the case of “QVQLVESGGGLVQAGGSLRLSCAASGSTFSRYTMGWYRQAPGKERELVAAISKSGGSTYYADSVKGRFTISRDNAKNTVYLQMNSLKPEDTAVYYCAALVRAGTSLDYDYWGQGTQVTVSS”, the “polyreactivity (PSR sort gate)” value was “high polyreactivity”.
The result for “QVQLVESGGGLVQAGGSLRLSCAASGSTFSSNAMGWYRQAPGKERELVAAINRTGNTYYADSVKGRFTISRDNAKNTVYLQMNSLKPEDTAVYYRNTVLNLYRGGGYWGQGTQVTVSS” reads “low polyreactivity”.
For “QVQLVESGGGLVQAGGSLRLSCAASGSTFSSNAMGWYRQAPGNERELVAAISKRGGRTYYADSVKGRFTISRDNAKNTVYLQMNSLKPEDTAVYYCAKDYSSAVDYWGQGTQVTVSS”, the “polyreactivity (PSR sort gate)” value is “high polyreactivity”.
The result for “QVQLVESGGGLVQAGGSLRLSCAASGSTFSSYAMGWYRQAPGKERELVAAITYSGGSTYYADSVKGRFTISRDNAKNTVYLQMNSLKPEDTAVYYCATRSLFWSFTYYYWGQGTQVTVSS” reads “low polyreactivity”.
As to “QVQLVESGGGLVQAGGSLRLSCAASGSTFSSYAMGWYRQAPGKERELVARITSGDSTYYADSVKGRFTISRDNAKNTVYLQMNSLKPEDTAVYYCNAVAYGRTYDYWGQGTQVTVSS”, the “polyreactivity (PSR sort gate)” value was “high polyreactivity”.
With “QVQLVESGGGLVQAGGSLRLSCAASGSTFSSYVMGWYRQAPGKERELVAGITRGGRTYYADSVKGRFTISRDNAKNTVYLQMNSLKPEDTAVYYCNARDGVTTEFDYWGQGTQVTVSS”, the “polyreactivity (PSR sort gate)” value is “low polyreactivity”.
“QVQLVESGGGLVQAGGSLRLSCAASGSTFSTYAMGWYRQAPGKERELVAAIRWSGGSTYYADSVKGRFTISRDNAKNTVYLQMNSLKPEDTAVYYCAKGIRRWYGGSDYWGQGTQVTVSS”: the “polyreactivity (PSR sort gate)” value is reported as “low polyreactivity”.
“QVQLVESGGGLVQAGGSLRLSCAASGSTFSTYAMGWYRQAPGKERELVAVITWRGGSTYYADSVKGRFTISRDNAKNTVYLQMNSLKPEDTAVYYCAAEGESPEYDYWGQGTQVTVSS”: the “polyreactivity (PSR sort gate)” value is listed as “low polyreactivity”.
Take “QVQLVESGGGLVQAGGSLRLSCAASGSTFSTYAMGWYRQAPGTERELVAASRWSGGSTYYADSVKGRFTISRDNAKNTVYLQMNSLKPEDTAVYYCAKGIRRWYGGSDYWGQGTQVTVSS”: the “polyreactivity (PSR sort gate)” value is recorded as “low polyreactivity”.
With “QVQLVESGGGLVQAGGSLRLSCAASGSTFSVNAMGWYRQAPGKERELVAAITYSGGSTYYADSVKGRFTISRDNAKNTVYLQMNSLKPEDTAVYYCAAEARYWIYEYDYWGQGTQVTVSS”, the “polyreactivity (PSR sort gate)” value is listed as “high polyreactivity”.
To “QVQLVESGGGLVQAGGSLRLSCAASGSTFSVNPMGWYRQARVKERELVAAIDSGDSTYYADSVKGRFTISRDNAKNTVYLQMNSLKPEDTAVYYCATDVTFVYDLGYFQYDYWGQGTQVTVSS” belongs “low polyreactivity”; to “QVQLVESGGGLVQAGGSLRLSCAASGSTFSVYAMGWYRQAPGKERELVAAISSGGTTNYADSVKGRFTISRDNAKNTVYLQMNSLKPEDTAVYYCAAEYDHYPYDYYWGQGTQVTVSS”, “low polyreactivity”; to “QVQLVESGGGLVQAGGSLRLSCAASGSTFSYFAMGWYRQAPGKERELVAAISWNGGSTYYADSVKGRFTISRDNAKNTVYLQMNSLKPEDTAVYYCAAHPAYRDSWGEYDYWGQGTQVTVSS”, “low polyreactivity”.
Take “QVQLVESGGGLVQAGGSLRLSCAASGSTFSYNAMGWYRQAPRKERELVAAISNTGSTYYADSVKGRFTISRDNAKNTVYLQMYSVKPEDSAVYYCAALWVHKRRQNSAHYDSWGQGTQVTVSS”: the “polyreactivity (PSR sort gate)” value is “low polyreactivity”.
As for “QVQLVESGGGLVQAGGSLRLSCAASGSTFSYNAMGWYRQAPWKERELVAAISWNGDSTYADSVKGRFTISRDNAKNTVYLQMNSLKPEDTAVYYCAKDTIITPGRRKSPRYRHGYWGQGTQVTVSS”, the “polyreactivity (PSR sort gate)” value was “low polyreactivity”.
The result for “QVQLVESGGGLVQAGGSLRLSCAASGSTFSYNAMGWYRRAPGKERELVAAISWNGDSTYADSVKGRFTISRDNAKNTVYLQMNSLKPEDTAVYYCAKETIITPGRRKSPRYLHGYWGQGTQVTVSS” reads “low polyreactivity”.
Turning to “QVQLVESGGGLVQAGGSLRLSCAASGSTFSYYAMGSYRQAPGKERELVADISWSGGSTYYADSVKGRFTISRDNAKNTVYLQMNSLKPEDTAVYYCAARGYVRWYNRYDYWGQGTQVTVSS”, the “polyreactivity (PSR sort gate)” value is “low polyreactivity”.
“QVQLVESGGGLVQAGGSLRLSCAASGSTFSYYAMGWYRQAPGKERELVAAISRSGGSTYYADSVKGRFTISRDNAKNTVYFQMNSMKPEDTAVYYCADRGQYRYSFGDYSWGQGTQVTVSS”: the “polyreactivity (PSR sort gate)” value is reported as “high polyreactivity”.
As for “QVQLVESGGGLVQAGGSLRLSCAASGSTFSYYAMGWYRQAPGKERELVAAITSSGGSTYYADSVKGRFTISRDNAKNTVYLQMNSLKPEDTAVYYCNTAYHVPYDYWGQGTQVTVSS”, the “polyreactivity (PSR sort gate)” value was “low polyreactivity”.
With “QVQLVESGGGLVQAGGSLRLSCAASGSTFSYYAMGWYRQAPGKESELVAAISRTAVSTYYADSVKGRFTISRDNAKNTVYLQMYSLKPEDTAVYYCAASHYHGYSLGYDYWGQGTQVTVSS”, the “polyreactivity (PSR sort gate)” value was “high polyreactivity”.
With “QVQLVESGGGLVQAGGSLRLSCAASGSTFSYYDMGWYRQAPGKERELVAAISWNGGTTYYADSVKGRFTISRDNAKNTVYLQMNSLKPEDTAVYYCAATWDFYWAPDDSWGQGTQVTVSS”, the “polyreactivity (PSR sort gate)” value is “low polyreactivity”.
Take “QVQLVESGGGLVQAGGSLRLSCAASGSTFSYYRMGWYRQATGTERELVASIDYSGESTYYADSVKGRFTISLDNAKNTVYLQMNSLNPEDTAVYYCAADDYPWNRYEYWGQGTQVTVSS”: the “polyreactivity (PSR sort gate)” value was “low polyreactivity”.
“QVQLVESGGGLVQAGGSLRLSCAASGSTFTANAMGWYRQAPGKERELVAAITNSDGSTYYADSVKGRFTISRDNAKNTVYLQMNSLKPEETAVYYCAKDYYACYWEMDYWGLGTQVTVSS”: the “polyreactivity (PSR sort gate)” value is listed as “low polyreactivity”.
The result for “QVQLVESGGGLVQAGGSLRLSCAASGSTFTAYAMGWYRQAPGKERELVAAINWSGGTTYYADSVKGRFTISRDNAKNTVYLQMNSLKPEDTAVYSCAVDGNFFGEVRPYDYWGQGTQVTVSS” reads “low polyreactivity”; that for “QVQLVESGGGLVQAGGSLRLSCAASGSTFTAYAMGWYRQAPGKERELVADISDSGGSTYYADSVKGRFTISRDNAKNTVYLQMNSLKPEDTAVYYCAAAWVFKKGFGTEMDYWGQGTQVTVSS”, “low polyreactivity”.
As to “QVQLVESGGGLVQAGGSLRLSCAASGSTFTAYVMGWYRQAPGKERELVAAISRSGGRTYYADSVKGRFTISRDNAKNTVYLQMNSLKPEDTAVYYCAARSGPLAYDYWGQGTQVTVSS”, the “polyreactivity (PSR sort gate)” value is on record as “high polyreactivity”.
Turning to “QVQLVESGGGLVQAGGSLRLSCAASGSTFTCYAMGWNRQAPRKERELVADITWRDGSTYYADSVKGRFTISRDNAKNTVYLQMNSLKPEDTAVYYCNGRRDYDMDWGQVTQVTVSS”, the “polyreactivity (PSR sort gate)” value is reported as “high polyreactivity”.
On to “QVQLVESGGGLVQAGGSLRLSCAASGSTFTDYDMGWYRQAPGKERELVAAITSGGSTNYADSVKGRFTISRDNAKNTVYLQMNSLKPEDTAVYYCKVRPYGFDSEFDYWGQGTQVTVSS”, for which the “polyreactivity (PSR sort gate)” value is reported as “low polyreactivity”.
The result for “QVQLVESGGGLVQAGGSLRLSCAASGSTFTEYAMGWYRQAPGKERELVAGISSDGSTKYADSVKGRFTISRDNAKNTVYLQMNSLKPEDTAVYYCNKDQSYAKYDYWGQGTQVTVSS” reads “low polyreactivity”.
Take “QVQLVESGGGLVQAGGSLRLSCAASGSTFTFYTMGWYRQAPGKERELVAAITISAGSTYYADSVKGRFTFSRDNAKNTVYLQMNSLKPEDSAVYYCAADTYAHWGYYGSYYRDDYWGQGTQVTVSS”: the “polyreactivity (PSR sort gate)” value is given as “low polyreactivity”.
